Results on three molecules are retold here after doi:10.1101/2024.11.03.621741 (bioRxiv, 2024).

Sequences and labels used below:
B1: GST-FIGNL1-dNLS (domain or fragment)
chain: AGKKFKDSLLEPALASVVIHKEATVFDLPKFSVCGSSQESDSLPNSAHDRDRTQDFPESNRLKLLQNAQPPMVTNTARTCPTFSAPVGESATAKFHVTPLFGNVKKENHSSAKENIGLNVFLSNQSCFPAACENPQRKSFYGSGTIDALSNPILNKACSKTEDNGPKEDSSLPTFKTAKEQLWVDQQKKYHQPQRASGSSYGGVKKSLGASRSRGILGKFVPPIPKQDGGEQNGGMQCKPYGAGPTEPAHPVDERLKNLEPKMIELIMNEIMDHGPPVNWEDIAGVEFAKATIKEIVVWPMLRPDIFTGLRGPPKGILLFGPPGTGKTLIGKCIASQSGATFFSISASSLTSKWVGEGEKMVRALFAVARCQQPAVIFIDEIDSLLSQRGDGEHESSRRIKTEFLVQLDGATTSSEDRILVVGATNRPQEIDEAARRRLVKRLYIPLPEASARKQIVINLMSKEQCCLSEEEIEQIVQQSDAFSGADMTQLCREASLGPIRSLQTADIATITPDQVRPIAYIDFENAFRTVRPSVSPKDLELYENWNKTFGCGK

The target in experiment [1] is MMS22L-TONSL complex (recombinant, purified) (human, UniProt Q6ZRQ5;Q96HA7). The experiment in a line: pull-down.
For the experiment “GST-FIGNL1-dNLS”, the target named is B1. The experiment in a line: pull-down.

Chain of MMS22L-TONSL complex (recombinant, purified) (Q6ZRQ5 whole entry, chain 1 of 2): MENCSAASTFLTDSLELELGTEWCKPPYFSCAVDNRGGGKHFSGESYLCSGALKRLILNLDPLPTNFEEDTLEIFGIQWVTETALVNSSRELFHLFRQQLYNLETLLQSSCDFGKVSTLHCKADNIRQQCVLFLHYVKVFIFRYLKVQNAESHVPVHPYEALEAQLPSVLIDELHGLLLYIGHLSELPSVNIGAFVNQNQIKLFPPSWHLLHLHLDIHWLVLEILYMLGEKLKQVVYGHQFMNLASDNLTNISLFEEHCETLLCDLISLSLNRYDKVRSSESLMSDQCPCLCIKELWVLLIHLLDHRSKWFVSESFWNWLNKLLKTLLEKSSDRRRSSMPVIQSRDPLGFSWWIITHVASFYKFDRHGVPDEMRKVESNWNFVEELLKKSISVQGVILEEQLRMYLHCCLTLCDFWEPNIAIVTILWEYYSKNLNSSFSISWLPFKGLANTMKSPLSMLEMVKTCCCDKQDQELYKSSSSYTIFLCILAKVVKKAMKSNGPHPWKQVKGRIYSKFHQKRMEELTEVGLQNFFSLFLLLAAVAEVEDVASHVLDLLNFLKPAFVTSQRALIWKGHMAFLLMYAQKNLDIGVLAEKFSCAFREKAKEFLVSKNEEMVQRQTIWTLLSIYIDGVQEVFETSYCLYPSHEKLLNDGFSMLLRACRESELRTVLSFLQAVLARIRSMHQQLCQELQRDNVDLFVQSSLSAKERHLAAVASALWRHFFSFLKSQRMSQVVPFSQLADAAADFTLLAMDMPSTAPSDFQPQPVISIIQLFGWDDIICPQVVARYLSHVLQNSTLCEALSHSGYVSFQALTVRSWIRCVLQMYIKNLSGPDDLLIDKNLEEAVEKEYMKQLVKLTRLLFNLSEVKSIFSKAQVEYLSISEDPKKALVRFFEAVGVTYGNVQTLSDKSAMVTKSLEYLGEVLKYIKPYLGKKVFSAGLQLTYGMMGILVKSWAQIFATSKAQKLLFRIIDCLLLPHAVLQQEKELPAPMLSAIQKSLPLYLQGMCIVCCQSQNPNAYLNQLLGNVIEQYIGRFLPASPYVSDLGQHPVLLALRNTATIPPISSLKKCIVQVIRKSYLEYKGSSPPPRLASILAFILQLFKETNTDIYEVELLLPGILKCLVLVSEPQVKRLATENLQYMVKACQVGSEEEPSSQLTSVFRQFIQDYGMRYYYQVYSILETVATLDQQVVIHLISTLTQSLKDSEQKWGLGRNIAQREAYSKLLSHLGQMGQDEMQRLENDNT
Chain of MMS22L-TONSL complex (recombinant, purified) (Q96HA7 whole entry, chain 2 of 2): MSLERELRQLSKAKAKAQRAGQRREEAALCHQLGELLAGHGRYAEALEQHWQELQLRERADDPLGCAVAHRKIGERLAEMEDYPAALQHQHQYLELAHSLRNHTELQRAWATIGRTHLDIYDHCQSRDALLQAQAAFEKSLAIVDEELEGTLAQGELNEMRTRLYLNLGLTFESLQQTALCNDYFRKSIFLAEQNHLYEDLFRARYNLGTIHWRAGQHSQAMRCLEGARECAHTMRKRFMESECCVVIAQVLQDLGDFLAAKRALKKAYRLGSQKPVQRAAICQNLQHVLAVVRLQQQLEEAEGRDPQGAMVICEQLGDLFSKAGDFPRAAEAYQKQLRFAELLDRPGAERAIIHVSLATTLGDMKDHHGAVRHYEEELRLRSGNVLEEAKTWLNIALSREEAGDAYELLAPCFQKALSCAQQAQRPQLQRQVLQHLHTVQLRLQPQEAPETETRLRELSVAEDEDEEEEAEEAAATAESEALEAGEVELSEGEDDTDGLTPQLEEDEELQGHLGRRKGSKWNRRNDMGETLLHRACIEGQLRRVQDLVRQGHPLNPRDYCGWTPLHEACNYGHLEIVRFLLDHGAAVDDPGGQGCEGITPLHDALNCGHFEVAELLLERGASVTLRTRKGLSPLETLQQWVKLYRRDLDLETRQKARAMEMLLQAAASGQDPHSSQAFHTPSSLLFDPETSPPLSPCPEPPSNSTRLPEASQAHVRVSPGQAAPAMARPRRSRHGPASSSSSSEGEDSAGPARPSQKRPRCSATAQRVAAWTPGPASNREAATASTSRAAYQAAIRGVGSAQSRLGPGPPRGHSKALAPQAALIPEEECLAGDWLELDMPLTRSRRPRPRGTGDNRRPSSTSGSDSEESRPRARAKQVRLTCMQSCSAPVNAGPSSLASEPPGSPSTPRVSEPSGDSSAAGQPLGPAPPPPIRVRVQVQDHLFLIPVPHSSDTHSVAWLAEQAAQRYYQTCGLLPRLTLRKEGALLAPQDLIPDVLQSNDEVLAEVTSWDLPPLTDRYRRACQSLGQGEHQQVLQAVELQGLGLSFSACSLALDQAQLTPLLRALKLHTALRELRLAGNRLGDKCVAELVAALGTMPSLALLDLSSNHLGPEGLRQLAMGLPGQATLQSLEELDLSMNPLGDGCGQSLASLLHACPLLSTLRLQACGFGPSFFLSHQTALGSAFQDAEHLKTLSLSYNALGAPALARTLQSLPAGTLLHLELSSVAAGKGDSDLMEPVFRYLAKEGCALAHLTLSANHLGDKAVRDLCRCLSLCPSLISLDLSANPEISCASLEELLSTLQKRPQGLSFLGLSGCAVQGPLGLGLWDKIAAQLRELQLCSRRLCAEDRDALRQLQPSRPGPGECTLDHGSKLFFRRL

Turning to B1, in experiment [1], the binding result is “binds”.

B2: RAD51 (wild type, recombinant) (natural protein)
chain: MAMQMQLEANADTSVEEESFGPQPISRLEQCGINANDVKKLEEAGFHTVEAVAYAPKKELINIKGISEAKADKILAEAAKLVPMGFTTATEFHQRRSEIIQITTGSKELDKLLQGGIETGSITEMFGEFRTGKTQICHTLAVTCQLPIDRGGGEGKAMYIDTEGTFRPERLLAVAERYGLSGSDVLDNVAYARAFNTDHQTQLLYQASAMMVESRYALLIVDSATALYRTDYSGRGELSARQMHLARFLRMLLRLADEFGVAVVITNQVVAQVDGAAMFAADPKKPIGGNIIAHASTTRLYLRKGRGETRICKIYDSPCLPEAEAMFAINADGVGDAKD
As to B2, the binding result with GST-FIGNL1-dNLS was “binds”.

B3: RAD51-K133R (natural protein)
chain: MAMQMQLEANADTSVEEESFGPQPISRLEQCGINANDVKKLEEAGFHTVEAVAYAPKKELINIKGISEAKADKILAEAAKLVPMGFTTATEFHQRRSEIIQITTGSKELDKLLQGGIETGSITEMFGEFRTGRTQICHTLAVTCQLPIDRGGGEGKAMYIDTEGTFRPERLLAVAERYGLSGSDVLDNVAYARAFNTDHQTQLLYQASAMMVESRYALLIVDSATALYRTDYSGRGELSARQMHLARFLRMLLRLADEFGVAVVITNQVVAQVDGAAMFAADPKKPIGGNIIAHASTTRLYLRKGRGETRICKIYDSPCLPEAEAMFAINADGVGDAKD
As for B3, in the experiment with GST-FIGNL1-dNLS, the binding result is “binds”.
